The text below walks through data of patent publication US20210246194A1.

For the experiment, the target named is HIV-1 JRFL gp140 Recombinant protein (HIV-1 JRFL). Kind of experiment: Attana Cell A200 QCM; IgG captured on anti-human IgG Fc; gp140 at 25, 50 and 100 nM; 1:1 fit.

B1: 7B2 IgG (antibody, V domains shown)
VH: QVQLVQSGGGVFKPGGSLRLSCEASGFTFTEYYMTWVRQAPGKGLEWLAYISKNGEYSKYSPSSNGRFTISRDNAKNSVFLQLDRLSADDTAVYYCARADGLTYFSELLQYIFDLWGQGARVTVSS
VL: DIVMTQSPDSLAVSPGERATIHCKSSQTLLYSSNNRHSIAWYQQRPGQPPKLLLYWASMRLSGVPDRFSGSGSGTDFTLTINNLQAEDVAIYYCHQYSSHPPTFGHGTRVEIK
As for B1, the Kd stood at 2.9 nM.

B2: 7B2GL IgG (antibody, V domains shown)
VH: QVQLVESGGGLVKPGGSLRLSCAASGFTFSEYYMTWIRQAPGKGLEWVSYISKNGEYSKYSPSSNGRFTISRDNAKNSLYLQMNSLRAEDTAVYYCARADGLTYFSELLQYIFDLWGQGTLVTVSS
VL: DIVMTQSPDSLAVSLGERATINCKSSQTLLYSSNNRHSIAWYQQKPGQPPKLLIYWASMRLSGVPDRFSGSGSGTDFTLTISSLQAEDVAVYYCHQYSSHPPTFGQGTKVEIK
Turning to B2, the dissociation constant Kd is 2.9 nM.

For orientation: Kd means the constant that tells how readily two partners part at equilibrium.
